Here are results for 1 protein from FireProtDB (doi:10.1021/bi702211j).

The conditions of this data set: Saccharomyces cerevisiae (strain ATCC 204508 / S288c), pH 7.5, 20 °C, Urea, HEPES 10 mM, NaCl 200 mM, reversible: Yes, whole UniProt chain shown.

Values joined by “and” are separate entries in the source; they are usually repeats but may differ in a detail not shown here. Identical values can stand only once.

B1: Eukaryotic translation initiation factor 2 subunit alpha wild type, P20459 (protein)
chain: MSTSHCRFYENKYPEIDDIVMVNVQQIAEMGAYVKLLEYDNIEGMILLSELSRRRIRSIQKLIRVGKNDVAVVLRVDKEKGYIDLSKRRVSSEDIIKCEEKYQKSKTVHSILRYCAEKFQIPLEELYKTIAWPLSRKFGHAYEAFKLSIIDETVWEGIEPPSKDVLDELKNYISKRLTPQAVKIRADVEVSCFSYEGIDAIKDALKSAEDMSTEQMQVKVKLVAAPLYVLTTQALDKQKGIEQLESAIEKITEVITKYGGVCNITMPPKAVTATEDAELQALLESKELDNRSDSEDDEDESDDE
Turning to B1, where the note is “CD”, the denaturant m value was 0.88 kcal/mol/M and 0.98 kcal/mol/M; the unfolding free energy was 2.45 kcal/mol and 2.95 kcal/mol and 4.61 kcal/mol. Further, for the setting “Fluorescence”, the denaturant m value was 1.84 kcal/mol/M and 2.19 kcal/mol/M; the unfolding free energy is 5.17 kcal/mol and 6.66 kcal/mol and 5.45 kcal/mol.
